Results reported in IntAct's records for PubMed 21802063.

B1: Cell adhesion molecule-related/down-regulated by oncogenes (Rattus norvegicus (Rat)), O35158 (parent)
chain: MHPDLGPLWKLLYVLVILCSSVSSDLATYFISEPLSAVQKLGRPVVLHCSAKPVTARISWLHNGKRLDRNTEQIKIHRGTLTILSLNPSLSGCYQCVANNSVGAVVSGPATVSADALADFDSSTMHVITAEKKNTGFIGCRVPESNPKAEVRYKIRGKWLMYSTGNYIILPSGNLQILNVSSKDKGSYKCAAYNPVTSELKVEPAGRKLLVSRPSSDGFHILHPALSQALAVLPHSPVTLECVVSGVPASQVYWLKDGQDCLSGSNWRRLYSHLATASIDPADSGNYSCVVGNNSSGDVKHVTYTVNVLEHASISKGLHDQKVSLGATVRFTCEVHGNPAPNRTWFHNAQPIRPSSRHLTEGSVLKITGVIMEDSGLYQCMADNGIGFMQSTGRLQIEQDSGQRPVIVTAPANVEVTDGDFVTLSCNATGEPVPVIHWYGRHGLITSHPSQVLRSKSRKSHLFRPGDLDPEPVYLIMSQAGSSSLSIQAVTREHAGKYTCEAVNKHGSTQSEAFLTVVPFETNTKAEPVTPSEASQNDERDPRDGSESGLLNLFPVKVHSGGVELPAEKNASVPDAPNILSPPQTHMPDTYTLVWRTGRDGGMPINAYFVKYRKLDDGSGAVGSWHTVRVPGSESELHLTELEPSSLYEVLMVARSAVGEGQPAMLTFRTSKEKMASSKNTQASFPPVGIPKRPVTSEASNSNFGVVLTDSSRHSGVPEAPDRPTISMASETSVYVTWIPRANGGSPITAFKVEYKRMKSSDWLVAAEDIPPSKLSVEVRSLEPGSIYKFRVIVINHYGESFRSSASRPYQVAGFPNRFSNRPITGPHIAYTEAVSDTQIMLKWTYIPSSNNNTPIQGFYIYYRPTDSDNDSDYKRDVVEGSKQWHTIGHLQPETSYDIKMQCFNEGGESEFSNVMICETKVKRVPGASEYPMKELSTPPSSSGNGGNVGPATSPARSSDMLYLIVGCVLGVMVLILLVFIALCLWKSRQQSAIQKYDPPGYLYQGSEINGQMVEYTTLSGTARINGSVHGGFLSKGSLSNGCSHLHHKGPNGVNGILNGTINGGLYSAHTSSLTRTCVEFEHPHHLVNGGAVYTAVPQMDPLECINCRNCRNNNRCFTKTNSPLPVVPVVASYPQDGLEMKPLGVMKFPVCPVSTVPDGGQIPEECLKDSVAPAPTQRTCRQDNTSDINSDSTEDTAEFNRGDSSGHSEAEDKVFSWSPLILSPVLEDCSEKTAWSPPGPPLDGLSVVLQQAQET
partner: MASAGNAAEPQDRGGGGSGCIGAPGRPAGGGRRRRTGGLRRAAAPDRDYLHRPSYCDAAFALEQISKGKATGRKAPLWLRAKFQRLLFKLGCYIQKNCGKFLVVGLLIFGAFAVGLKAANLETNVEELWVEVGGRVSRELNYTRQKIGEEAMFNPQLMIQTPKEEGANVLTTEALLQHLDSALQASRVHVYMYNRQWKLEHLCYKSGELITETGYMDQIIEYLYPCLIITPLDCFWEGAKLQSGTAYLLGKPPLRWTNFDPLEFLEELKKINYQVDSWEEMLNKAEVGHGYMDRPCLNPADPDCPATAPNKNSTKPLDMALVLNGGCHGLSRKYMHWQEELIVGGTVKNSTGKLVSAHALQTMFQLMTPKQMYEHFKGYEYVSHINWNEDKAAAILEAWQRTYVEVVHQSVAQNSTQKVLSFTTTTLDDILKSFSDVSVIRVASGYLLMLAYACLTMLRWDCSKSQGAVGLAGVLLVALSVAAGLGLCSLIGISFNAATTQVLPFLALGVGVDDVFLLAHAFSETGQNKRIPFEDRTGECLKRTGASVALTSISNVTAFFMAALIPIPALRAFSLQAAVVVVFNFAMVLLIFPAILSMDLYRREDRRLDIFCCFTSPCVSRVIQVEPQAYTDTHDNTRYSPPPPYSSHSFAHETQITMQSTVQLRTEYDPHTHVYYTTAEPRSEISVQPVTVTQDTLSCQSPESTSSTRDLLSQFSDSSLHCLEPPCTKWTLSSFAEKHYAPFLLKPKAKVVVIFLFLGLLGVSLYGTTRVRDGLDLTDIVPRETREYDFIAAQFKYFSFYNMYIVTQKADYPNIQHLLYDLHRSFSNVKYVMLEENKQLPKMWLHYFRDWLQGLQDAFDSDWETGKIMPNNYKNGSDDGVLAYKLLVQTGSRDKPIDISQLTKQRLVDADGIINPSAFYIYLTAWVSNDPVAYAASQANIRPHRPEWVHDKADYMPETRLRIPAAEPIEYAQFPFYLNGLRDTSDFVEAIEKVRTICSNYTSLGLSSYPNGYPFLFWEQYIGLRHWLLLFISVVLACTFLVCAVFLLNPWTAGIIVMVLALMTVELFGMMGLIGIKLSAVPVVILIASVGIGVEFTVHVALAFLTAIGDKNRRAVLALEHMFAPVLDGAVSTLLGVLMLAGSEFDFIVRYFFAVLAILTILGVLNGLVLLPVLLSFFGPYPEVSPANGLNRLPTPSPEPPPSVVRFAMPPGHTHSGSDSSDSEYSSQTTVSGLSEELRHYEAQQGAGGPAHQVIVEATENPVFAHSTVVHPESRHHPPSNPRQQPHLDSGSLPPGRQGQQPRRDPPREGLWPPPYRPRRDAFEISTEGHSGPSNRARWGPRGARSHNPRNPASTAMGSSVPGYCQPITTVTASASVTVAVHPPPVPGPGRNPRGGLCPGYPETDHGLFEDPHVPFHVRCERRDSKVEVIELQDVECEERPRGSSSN
B2: Cell adhesion molecule-related/down-regulated by oncogenes (Rattus norvegicus (Rat)), O35158 (parent)
chain: B1 chain
partner: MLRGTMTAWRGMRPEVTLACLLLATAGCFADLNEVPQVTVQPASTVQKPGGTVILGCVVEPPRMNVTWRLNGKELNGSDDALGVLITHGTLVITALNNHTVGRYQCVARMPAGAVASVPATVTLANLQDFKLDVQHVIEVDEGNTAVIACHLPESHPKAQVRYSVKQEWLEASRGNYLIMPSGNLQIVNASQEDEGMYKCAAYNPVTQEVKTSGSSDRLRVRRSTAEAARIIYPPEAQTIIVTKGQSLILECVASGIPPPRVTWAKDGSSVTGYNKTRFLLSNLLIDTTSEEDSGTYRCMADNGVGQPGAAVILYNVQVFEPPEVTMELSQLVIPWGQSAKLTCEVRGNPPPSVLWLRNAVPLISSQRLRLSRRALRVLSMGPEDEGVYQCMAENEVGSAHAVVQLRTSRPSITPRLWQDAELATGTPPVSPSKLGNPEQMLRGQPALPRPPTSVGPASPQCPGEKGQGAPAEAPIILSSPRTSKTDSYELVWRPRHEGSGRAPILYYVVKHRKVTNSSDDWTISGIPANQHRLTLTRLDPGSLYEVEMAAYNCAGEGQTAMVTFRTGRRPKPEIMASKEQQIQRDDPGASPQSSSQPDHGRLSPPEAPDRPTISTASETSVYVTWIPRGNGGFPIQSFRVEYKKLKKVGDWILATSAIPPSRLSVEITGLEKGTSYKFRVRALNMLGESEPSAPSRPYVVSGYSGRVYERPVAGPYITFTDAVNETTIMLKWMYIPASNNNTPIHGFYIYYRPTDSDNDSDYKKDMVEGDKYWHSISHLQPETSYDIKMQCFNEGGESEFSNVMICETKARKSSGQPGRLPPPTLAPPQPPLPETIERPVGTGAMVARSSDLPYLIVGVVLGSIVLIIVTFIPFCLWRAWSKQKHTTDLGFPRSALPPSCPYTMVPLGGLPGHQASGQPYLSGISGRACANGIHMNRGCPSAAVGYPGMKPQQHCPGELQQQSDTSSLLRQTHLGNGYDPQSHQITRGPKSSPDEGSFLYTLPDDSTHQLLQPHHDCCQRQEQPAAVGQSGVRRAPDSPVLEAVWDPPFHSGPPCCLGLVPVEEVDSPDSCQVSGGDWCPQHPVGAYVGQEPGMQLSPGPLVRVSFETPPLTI
B3: Cell adhesion molecule-related/down-regulated by oncogenes (Rattus norvegicus (Rat)), O35158 (parent)
chain: B1 chain
partner: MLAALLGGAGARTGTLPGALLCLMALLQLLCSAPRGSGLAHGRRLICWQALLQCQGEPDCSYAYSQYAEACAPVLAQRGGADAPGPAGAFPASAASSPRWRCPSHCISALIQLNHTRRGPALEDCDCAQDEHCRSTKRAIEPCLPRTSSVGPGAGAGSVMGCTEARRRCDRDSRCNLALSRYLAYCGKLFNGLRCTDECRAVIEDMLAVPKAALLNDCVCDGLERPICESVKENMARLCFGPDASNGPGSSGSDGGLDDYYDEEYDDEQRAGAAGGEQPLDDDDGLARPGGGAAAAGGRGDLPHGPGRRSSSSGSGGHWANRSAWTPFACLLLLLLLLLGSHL

Variants of: B1
Conditions: with ptc1_human PTCH1, Q13635

Effect of a mutation on the interaction, decreasing interaction strength:
I787A
V777E
S937R
P686A
V688M

Effect of a mutation on the interaction, with no effect:
T681S

Variants of: B2
Conditions: with boc_human BOC

Effect of a mutation on the interaction, decreasing interaction strength:
P686A

Effect of a mutation on the interaction, with no effect:
T681S
V688M
V777E
I787A
S937R

Variants of: B3
Conditions: with gas1_mouse Gas1, Q01721

Effect of a mutation on the interaction, with no effect:
T681S
V688M
V777E

Effect of a mutation on the interaction, decreasing interaction strength:
P686A
I787A
S937R
